Patent publication US20220332804A1 (CSL INNOVATION, published 2022)

Columns and labels:
Assay in all cases: SPR, KD relative to WT C2;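 note: biacore SPR at 37 °C, anti-C2 mAbs captured on anti-human IgG chips with alanine or serine point mutants of C2 as analyte, KD from 1:1 fit compared with wild-type C2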
human C2 N327A = target: T1, human C2 N327A (human, UniProt P06681 21-752)
T1 sequence: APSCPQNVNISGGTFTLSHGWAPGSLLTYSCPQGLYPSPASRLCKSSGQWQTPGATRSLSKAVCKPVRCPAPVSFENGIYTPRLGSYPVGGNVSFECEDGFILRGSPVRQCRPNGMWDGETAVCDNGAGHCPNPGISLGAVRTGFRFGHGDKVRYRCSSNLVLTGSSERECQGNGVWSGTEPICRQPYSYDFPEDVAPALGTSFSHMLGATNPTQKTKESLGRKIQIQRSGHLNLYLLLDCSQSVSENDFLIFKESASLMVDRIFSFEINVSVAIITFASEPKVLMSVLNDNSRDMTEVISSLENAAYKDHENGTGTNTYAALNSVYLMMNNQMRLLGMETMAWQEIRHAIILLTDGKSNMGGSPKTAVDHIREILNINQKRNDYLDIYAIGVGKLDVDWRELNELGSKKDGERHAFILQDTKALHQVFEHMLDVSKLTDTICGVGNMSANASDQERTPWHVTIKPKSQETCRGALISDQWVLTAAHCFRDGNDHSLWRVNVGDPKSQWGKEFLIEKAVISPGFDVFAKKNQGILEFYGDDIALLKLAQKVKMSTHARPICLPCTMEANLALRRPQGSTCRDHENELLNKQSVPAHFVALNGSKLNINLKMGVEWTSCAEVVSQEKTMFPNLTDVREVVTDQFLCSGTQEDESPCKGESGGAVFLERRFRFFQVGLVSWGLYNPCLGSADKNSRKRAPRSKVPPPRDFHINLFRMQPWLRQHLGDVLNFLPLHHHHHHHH

human C2 K430A = target: T2, human C2 K430A (human, UniProt P06681 21-752)
T2 sequence: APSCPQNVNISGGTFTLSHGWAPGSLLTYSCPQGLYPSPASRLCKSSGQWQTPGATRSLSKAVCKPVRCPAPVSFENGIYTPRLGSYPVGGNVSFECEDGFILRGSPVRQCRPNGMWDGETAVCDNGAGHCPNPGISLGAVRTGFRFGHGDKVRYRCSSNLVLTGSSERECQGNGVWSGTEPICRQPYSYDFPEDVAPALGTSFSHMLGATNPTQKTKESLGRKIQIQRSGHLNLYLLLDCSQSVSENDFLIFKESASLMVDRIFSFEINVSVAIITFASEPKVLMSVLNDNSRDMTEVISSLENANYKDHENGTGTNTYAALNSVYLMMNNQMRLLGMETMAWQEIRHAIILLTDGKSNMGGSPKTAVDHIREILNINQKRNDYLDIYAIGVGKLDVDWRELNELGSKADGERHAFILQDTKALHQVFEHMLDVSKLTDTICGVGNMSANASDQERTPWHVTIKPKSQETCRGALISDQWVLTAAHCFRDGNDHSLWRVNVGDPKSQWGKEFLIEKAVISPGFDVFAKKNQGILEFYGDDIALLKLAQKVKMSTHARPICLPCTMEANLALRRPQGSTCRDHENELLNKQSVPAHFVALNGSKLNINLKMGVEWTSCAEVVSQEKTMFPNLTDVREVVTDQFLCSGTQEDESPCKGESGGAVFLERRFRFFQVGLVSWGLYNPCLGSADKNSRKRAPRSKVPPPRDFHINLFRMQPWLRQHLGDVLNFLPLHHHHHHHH

human C2 D454A = target: T3, human C2 D454A (human, UniProt P06681 21-752)
T3 sequence: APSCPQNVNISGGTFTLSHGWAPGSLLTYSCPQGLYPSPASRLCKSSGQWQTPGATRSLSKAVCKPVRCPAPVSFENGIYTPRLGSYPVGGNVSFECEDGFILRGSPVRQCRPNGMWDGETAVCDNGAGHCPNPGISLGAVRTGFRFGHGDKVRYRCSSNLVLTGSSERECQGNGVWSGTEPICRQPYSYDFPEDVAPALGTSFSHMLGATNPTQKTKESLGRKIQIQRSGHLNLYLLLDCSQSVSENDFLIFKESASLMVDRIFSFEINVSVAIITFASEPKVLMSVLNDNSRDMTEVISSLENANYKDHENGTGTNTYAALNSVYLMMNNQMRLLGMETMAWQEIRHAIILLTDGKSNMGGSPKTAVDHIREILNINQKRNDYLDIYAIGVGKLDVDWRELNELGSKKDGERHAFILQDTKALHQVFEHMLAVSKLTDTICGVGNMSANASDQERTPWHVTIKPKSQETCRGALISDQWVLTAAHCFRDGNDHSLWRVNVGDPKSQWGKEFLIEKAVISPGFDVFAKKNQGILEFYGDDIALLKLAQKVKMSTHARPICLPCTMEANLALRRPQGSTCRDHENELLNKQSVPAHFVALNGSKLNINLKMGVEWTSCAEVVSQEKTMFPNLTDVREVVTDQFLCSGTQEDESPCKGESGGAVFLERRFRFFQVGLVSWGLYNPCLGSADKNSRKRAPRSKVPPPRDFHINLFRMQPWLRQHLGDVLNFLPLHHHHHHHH

human C2 R493A = target: T4, human C2 R493A (human, UniProt P06681 21-752)
T4 sequence: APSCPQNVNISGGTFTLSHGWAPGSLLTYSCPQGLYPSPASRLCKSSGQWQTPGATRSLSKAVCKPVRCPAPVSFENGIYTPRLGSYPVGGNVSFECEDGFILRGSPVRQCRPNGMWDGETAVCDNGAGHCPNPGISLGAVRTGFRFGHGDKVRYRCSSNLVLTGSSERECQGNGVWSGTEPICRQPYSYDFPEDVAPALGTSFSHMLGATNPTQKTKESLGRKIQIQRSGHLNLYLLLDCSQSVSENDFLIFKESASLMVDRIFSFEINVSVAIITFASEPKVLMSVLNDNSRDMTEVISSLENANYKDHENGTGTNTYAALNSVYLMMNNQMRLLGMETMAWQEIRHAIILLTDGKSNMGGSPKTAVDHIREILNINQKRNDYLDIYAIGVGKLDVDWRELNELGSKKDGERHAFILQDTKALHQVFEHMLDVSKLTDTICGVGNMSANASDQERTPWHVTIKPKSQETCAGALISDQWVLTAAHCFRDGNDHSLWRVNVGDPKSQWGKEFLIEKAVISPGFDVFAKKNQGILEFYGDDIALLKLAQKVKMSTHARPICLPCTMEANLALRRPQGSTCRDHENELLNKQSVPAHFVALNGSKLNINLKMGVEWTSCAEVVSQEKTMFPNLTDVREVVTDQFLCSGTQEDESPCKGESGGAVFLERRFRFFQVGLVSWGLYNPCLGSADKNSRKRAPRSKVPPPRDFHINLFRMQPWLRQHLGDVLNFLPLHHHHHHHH

B1: RF16-242 (antibody, human IgG4 S228P, lambda, V domains shown)
VH: EVQLLQSGAEVKKPGESLKISCKGSGYSFTSYWIGWVRQMPGKGLEWMGIIYPGDSDTRYSPSFQGQVTISADKSISTAYLQWSSLKASDTAMYYCARRGHYGDYFDYWGQGTLVTVSS
VL: SYELTQPPSVSVSPGQTARITCSGDALPKKYAYWYHQKSGQAPVLVIYEDRRRPSEIPERFSGSSSGTMATLTITGAQVEDEGVYFCYSRDRAGNQRVFGGGTQLTVLG
notes: pH-dependent anti-C2 antibody from a phage display library
Fold diff (human C2 N327A): 5 fold | Fold diff (human C2 K430A): 13 fold | Fold diff (human C2 D454A): 5 fold | Fold diff (human C2 R493A): 1 fold
